Measurements: patent US20260055369A1, “METHOD FOR GENERATING CELLS OF THE T CELL LINEAGE WITH ENGINEERING BROADLY REACTIVE HUMAN NOTCH LIGAND” (H. Lee Moffitt Cancer Center and Research Institute, Inc., priority 2022, published 2026)

System: Notch1 (EGF6-13)
Assay: SPR determination of equilibrium dissociation constants
Format: binding, human
Settings: for off-rate from fitted SPR sensograms: series DLL4.v1, DLL4.v2, Delta^MAX, FIG. 2C Notch1 EGF6-13; for binding affinity compared to WT DLL4: stated for all four human Notch receptors (Notch1-4)
Description: Equilibrium dissociation constants were determined by surface plasmon resonance using a Biacore T200 instrument (GE Healthcare). Approximately 100 resonance units (RU) of biotinylated Notch extracellular fragments (Notch1 (EGF6-13), Notch2 (EGF6-13), Notch3 (EGF5-12), Notch4 (7-12), and mouse Notch1 (EGF6-13)) were immobilized on individual flow cells at 5 μl/min using a streptavidin-coated sensor chip (Series S Sensor chip SA, GE Healthcare). Three-fold serial dilutions of recombinant DLL4 proteins (N-EGF5) starting at 50 μM (WT DLL4), 18 μM (DLL4.v2), and 6 μM (DLL4.v1 and Delta^MAX) were flowed over the chip at 25° C. in SPR buffer (20 mM HEPES pH 7.4, 150 mM NaCl, 1 mM calcium chloride, 0.1% BSA supplemented with 0.005% surfactant P20). Association (“on-rate”) and dissociation (“off-rate”) phases were performed at 10 μl/min for 120 seconds and 300 seconds, respectively. The sensor chip was regenerated after each injection with 30-second washes of 2.25M Magnesium Chloride containing 25% Ethylene Glycol at 50 μL/min. Data collection rate was performed at 10 Hz, and curves were reference-subtracted from a flow cell containing 100 RU of a negative control non-related protein (biotinylated mouse RNF43 PA domain). The maximum RU for each experiment was normalized to a value of 100% and plotted as a function of concentration using Prism 9 software (GraphPad). Steady-state binding and kinetic curves were fitted using the Biacore T200 evaluation software to a 1:1 Langmuir model to determine the KD values.

Notch1 (EGF6-13), sequence (P46531 257-526 limits assumed): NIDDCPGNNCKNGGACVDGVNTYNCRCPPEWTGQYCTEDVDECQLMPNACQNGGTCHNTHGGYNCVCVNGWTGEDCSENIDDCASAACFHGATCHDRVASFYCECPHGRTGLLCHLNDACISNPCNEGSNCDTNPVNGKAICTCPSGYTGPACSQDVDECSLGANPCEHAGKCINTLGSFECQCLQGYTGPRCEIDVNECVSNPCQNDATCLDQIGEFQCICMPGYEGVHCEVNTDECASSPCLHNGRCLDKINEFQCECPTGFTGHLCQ

| Molecule | off-rate from fitted SPR sensograms | binding affinity compared to WT DLL4 |
| --- | --- | --- |
| DLL4.v2: human DLL4 clone with five mutations N257P, T271L, F280Y, S301R, Q305P; matches SEQ ID NO: 5 (protein) SGVFQLQLQEFINERGVLASGRPCEPGCRTFFRVCLKHFQAVVSPGPCTFGTVSTPVLGTNSAVRDDSSGGGRNPLQLPFNFTWPGTFSLIIEAWHAPGDDLRPEALPPDALISKIAIQGSLAVGQNWLLDEQTSTLTRLRYSYRVICSDNYYGDNCSRLCKKRNDHFGHYVCQPDGNLSCLPGWTGEYCQQPICLSGCHEQNGYCSKPAECLCRPGWQGRLCNECIPHPGCRHGTCSTPWQCLCDEGWGGLYCDQDLNYCTHHSPCKNGATCRNSGPRSYTCTCRPGYTGVDCELELSECDSNPCRNGGSCKDQEDGYHCLCPPGYYGLHCEHSTLSCADSPCFNGGSCRERNQGANYACECPPNFTGSNCE | progressive decreases in off-rate | enhanced affinity |
| DLL4.v1: human DLL4 construct containing the five E12 mutations (Site 1+Site 2); sequence matches SEQ ID NO: 2 (protein) SSVFQLQLQEFINERGVLASGRPCEPGCRTFFRVCLKHFQAVVSPGPCTFGTVSTPVLGTNSFAVRDDSSGGGRNPLQLPLNFTWPGTFSLIIEAWHAPGDDLRPEALPPDALISKFAIQGSLAVGQNWLLDEQTSTLTRLRYSYRVICSDNYYGDNCSRLCKKRNDYFGHYVCQPDGNPSCLPGWTGEYCQQPICLSGCHEQNGYCSKPAECLCRPGWQGRLCNECIPHNGCRHGTCSTPWQCTCDEGWGGLFCDQDLNYCTHHSPCKNGATCSNSGQRSYTCTCRPGYTGVDCELELSECDSNPCRNGGSCKDQEDGYHCLCPPGYYGLHCEHSTLSCADSPCFNGGSCRERNQGANYACECPPNFTGSNCE | progressive decreases in off-rate | enhanced affinity |
